The source of these data is paper PMC8916587, “Endoglin Wild Type and Variants Associated With Hereditary Hemorrhagic Telangiectasia Type 1 Undergo Distinct Cellular Degradation Pathways” (Frontiers in Molecular Biosciences, 2022).

The data set deals with the molecule itself. Description: non-reducing SDS-PAGE with Western blot; lysates of stably transfected HEK293 cells denatured in sample buffer with or without a reducing agent; blotted with anti-HA.

Where a chain is given by its changes, count along the chain named. Names and notes keep the numbering of the source.

B1: HA-tagged WT Endoglin (receptor, UniProt P17813 26-658, looked up)
chain: ETVHCDLQPVGPERGEVTYTTSQVSKGCVAQAPNAILEVHVLFLEFPTGPSQLELTLQASKQNGTWPREVLLVLSVNSSVFLHLQALGIPLHLAYNSSLVTFQEPPGVNTTELPSFPKTQILEWAAERGPITSAAELNDPQSILLRLGQAQGSLSFCMLEASQDMGRTLEWRPRTPALVRGCHLEGVAGHKEAHILRVLPGHSAGPRTVTVKVELSCAPGDLDAVLILQGPPYVSWLIDANHNMQIWTTGEYSFKIFPEKNIRGFKLPDTPQGLLGEARMLNASIVASFVELPLASIVSLHASSCGGRLQTSPAPIQTTPPKDTCSPELLMSLIQTKCADDAMTLVLKKELVAHLKCTITGLTFWDPSCEAEDRGDKFVLRSAYSSCGMQVSASMISNEAVVNILSSSSPQRKKVHCLNMDSLSFQLGLYLSPHFLQASNTIEPGQQSFVQVRVSPSVSEFLLQLDSCHLDLGPEGGTVELIQGRAAKGNCVSLLSPSPEGDPRFSFLLHFYTVPIPKTGTLSCTVALRPKTGSQDQEVHRTVFMRLNIISPDLSGCTSKGLVLPAVLGITFGAFLIGALLTAALWYIYSHTRSPSKREPVVAVAAPASSESSSTNHSIGSTQSTPCSTSSMA
notes: Endoglin (CD105), wild type, encoded by ENG; Seen as a dimer on a non-reducing gel; also called Endoglin WT; ENG-WT; source: HEK293, stably transfected (pcDNA3.0), in lysate
Broadly, the stoichiometry N is a count of units in the complex or per binding partner. B1: the “stoichiometry N” value stood at 2.

B2: HA-tagged Endoglin mutant variant V105D (receptor, UniProt P17813 26-658, looked up)
chain: B1 chain with V80D
notes: Endoglin (CD105) with the HHT1 disease-causing missense variant V105D, made by site directed mutagenesis; Retained in the ER; also called ENG-V105D; p; V105D; source: HEK293, stably transfected (pcDNA3.0), in lysate
In the case of B2, the “stoichiometry N” value was 2.

B3: HA-tagged Endoglin mutant variant P165L (receptor, UniProt P17813 26-658, looked up)
chain: B1 chain with P140L
notes: Endoglin (CD105) with the HHT1 disease-causing missense variant P165L, made by site directed mutagenesis; Retained in the ER; also called ENG-P165L; p; P165L; source: HEK293, stably transfected (pcDNA3.0), in lysate
Regarding B3, the “stoichiometry N” value is 2.
